For the test, the target named is RPL14-60S ribosomal protein L14 (human) (UniProt P50914). Put plainly: ProtoArray, GST-treated control array.

3× Flag-3×MBT (designed binder; other documents disagree on this pair), sequence (Q9Y468 258-598): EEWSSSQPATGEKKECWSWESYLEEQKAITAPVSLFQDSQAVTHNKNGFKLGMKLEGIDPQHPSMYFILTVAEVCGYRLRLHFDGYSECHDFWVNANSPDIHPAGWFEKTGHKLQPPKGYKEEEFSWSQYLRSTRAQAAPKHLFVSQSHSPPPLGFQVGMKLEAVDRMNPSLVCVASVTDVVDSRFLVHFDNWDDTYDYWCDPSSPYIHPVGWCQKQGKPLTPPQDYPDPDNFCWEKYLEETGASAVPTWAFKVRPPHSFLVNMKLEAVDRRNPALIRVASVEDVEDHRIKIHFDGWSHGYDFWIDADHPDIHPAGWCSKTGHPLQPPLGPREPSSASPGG

As for “3× Flag-3×MBT (designed binder; other documents disagree on this pair)”, the GST Average SNR was found to be 0.728.

The record behind these values is patent US20140274782A1, “AFFINITY REAGENTS AND METHODS FOR DETECTION, PURIFICATION, AND PROTEOMIC ANALYSIS OF METHYLATED PROTEINS” (The Board of Trustees of the Leland Stanford Junior …, priority 2013, published 2014).
